Target: IGF1R (on MCF-7 cells) (UniProt P08069)
Assay: cell-based or functional assay

UniProt P08069, sequence (P08069 31-1367 limits assumed): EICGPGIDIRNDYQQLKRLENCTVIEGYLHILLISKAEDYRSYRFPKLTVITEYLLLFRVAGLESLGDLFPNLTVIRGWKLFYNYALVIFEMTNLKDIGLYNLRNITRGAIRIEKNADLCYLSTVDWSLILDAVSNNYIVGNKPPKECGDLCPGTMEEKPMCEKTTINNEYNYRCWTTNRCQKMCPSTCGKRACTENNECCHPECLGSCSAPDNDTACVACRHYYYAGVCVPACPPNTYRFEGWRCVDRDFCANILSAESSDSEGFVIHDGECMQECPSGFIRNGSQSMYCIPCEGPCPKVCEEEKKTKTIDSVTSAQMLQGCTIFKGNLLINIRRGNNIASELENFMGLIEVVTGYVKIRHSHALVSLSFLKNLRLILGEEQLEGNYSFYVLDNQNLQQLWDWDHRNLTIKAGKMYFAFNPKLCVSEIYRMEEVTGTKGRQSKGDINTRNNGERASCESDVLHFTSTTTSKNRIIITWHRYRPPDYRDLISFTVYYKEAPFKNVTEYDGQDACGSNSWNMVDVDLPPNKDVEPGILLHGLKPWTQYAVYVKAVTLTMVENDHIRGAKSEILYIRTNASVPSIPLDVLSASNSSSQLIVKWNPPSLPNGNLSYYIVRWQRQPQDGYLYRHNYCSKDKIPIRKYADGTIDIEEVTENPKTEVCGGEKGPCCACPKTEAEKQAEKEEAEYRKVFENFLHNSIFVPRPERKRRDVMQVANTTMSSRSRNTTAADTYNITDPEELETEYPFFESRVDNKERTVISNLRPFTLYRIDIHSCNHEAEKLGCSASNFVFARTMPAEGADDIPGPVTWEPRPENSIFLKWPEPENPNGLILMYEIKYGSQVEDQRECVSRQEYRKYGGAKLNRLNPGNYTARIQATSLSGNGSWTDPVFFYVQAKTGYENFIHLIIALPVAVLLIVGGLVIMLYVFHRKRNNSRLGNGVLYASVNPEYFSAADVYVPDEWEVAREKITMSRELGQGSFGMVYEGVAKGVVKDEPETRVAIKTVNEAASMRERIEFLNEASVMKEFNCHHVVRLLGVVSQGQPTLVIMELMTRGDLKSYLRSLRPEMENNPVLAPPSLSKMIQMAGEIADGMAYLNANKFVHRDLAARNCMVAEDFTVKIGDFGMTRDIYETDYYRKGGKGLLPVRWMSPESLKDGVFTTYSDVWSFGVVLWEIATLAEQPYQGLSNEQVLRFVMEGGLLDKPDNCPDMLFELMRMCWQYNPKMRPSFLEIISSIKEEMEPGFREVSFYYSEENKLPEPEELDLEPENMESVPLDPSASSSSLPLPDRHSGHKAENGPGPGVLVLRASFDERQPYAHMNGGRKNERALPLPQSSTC

B1: 19D12 antibody (purified antibody obtained from 19D12 hybridoma) (antibody, from a related filing, V domains shown)
VH: EVQLVQSGGGLVHPGGSLRLSCAASGFTFSSFAMHWVRQAPGKGLEWISVIDTRGATYYADSVKGRFTISRDNAKNSLYLQMNSLRAEDMAVYYCARLGNFYYGMDVWGQGTTVTVSS
VL: EIVLTQVPDFQSVTPKEKVTITCRASQSIGSSLHWYQQKPDQSPKLLIKYASQSLSGVPSRFSGSGSGTDFTLTINSLEAEDAAAYYCHQSSRLPHTFGGGTKVEIKR
- % Inhibition, KIRA assay (IGF-I-stimulated receptor phosphorylation in MCF-7 cells), at 0.01 nM Ab (first row): -3.26%
- % Inhibition, KIRA assay (IGF-I-stimulated receptor phosphorylation in MCF-7 cells), at 0.01 nM Ab (second row): -0.34%
- % Inhibition, KIRA assay (IGF-I-stimulated receptor phosphorylation in MCF-7 cells), at 0.03 nM Ab: -3.18%
- % Inhibition, KIRA assay (IGF-I-stimulated receptor phosphorylation in MCF-7 cells), at 0.05 nM Ab: 0.87%
- % Inhibition, KIRA assay (IGF-I-stimulated receptor phosphorylation in MCF-7 cells), at 0.10 nM Ab: 3.82%
- % Inhibition, KIRA assay (IGF-I-stimulated receptor phosphorylation in MCF-7 cells), at 0.21 nM Ab: 10.1%
- % Inhibition, KIRA assay (IGF-I-stimulated receptor phosphorylation in MCF-7 cells), at 0.42 nM Ab: 18%
- % Inhibition, KIRA assay (IGF-I-stimulated receptor phosphorylation in MCF-7 cells), at 0.83 nM Ab: 39.4%
- % Inhibition, KIRA assay (IGF-I-stimulated receptor phosphorylation in MCF-7 cells), at 1.67 nM Ab: 40.5%
- % Inhibition, KIRA assay (IGF-I-stimulated receptor phosphorylation in MCF-7 cells), at 3.34 nM Ab: 54.6%
- % Inhibition, KIRA assay (IGF-I-stimulated receptor phosphorylation in MCF-7 cells), at 6.67 nM Ab: 69.6%
